Results taken from paper doi:10.1101/2025.10.08.681078 (bioRxiv, 2025).
Values belong to the binder of their own block, whether it stands above or below them.

Tests used:
[1] = target: human MLC1 fused to C-terminal GFP (Homo sapiens (Human)., UniProt Q15049); assay: western blot
[2] = target: mouse MLC1 fused to C-terminal GFP (Mus musculus (Mouse)., UniProt Q8VHK5); assay: western blot
[3] = target: chicken MLC1 fused to C-terminal GFP (Gallus gallus, UniProt A0A1D5PIT5); assay: western blot
[4] = target: Flag-tagged human MLC1 (human, UniProt Q15049); assay: western blot
Sequence of Flag-tagged human MLC1 (Q15049 whole entry): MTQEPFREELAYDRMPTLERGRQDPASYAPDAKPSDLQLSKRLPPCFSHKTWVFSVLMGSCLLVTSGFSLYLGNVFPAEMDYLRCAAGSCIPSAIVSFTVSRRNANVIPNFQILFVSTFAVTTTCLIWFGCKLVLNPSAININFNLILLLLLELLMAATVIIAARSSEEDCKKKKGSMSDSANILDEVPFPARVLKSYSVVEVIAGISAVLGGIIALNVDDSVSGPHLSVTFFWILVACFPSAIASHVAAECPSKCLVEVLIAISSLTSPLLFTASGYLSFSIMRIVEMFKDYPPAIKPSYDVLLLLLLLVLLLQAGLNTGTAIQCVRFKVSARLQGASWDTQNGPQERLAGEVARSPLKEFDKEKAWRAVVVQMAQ

[5] = target: Flag-tagged mouse MLC1 (mouse, UniProt Q8VHK5); assay: western blot
Sequence of Flag-tagged mouse MLC1 (Q8VHK5 whole entry): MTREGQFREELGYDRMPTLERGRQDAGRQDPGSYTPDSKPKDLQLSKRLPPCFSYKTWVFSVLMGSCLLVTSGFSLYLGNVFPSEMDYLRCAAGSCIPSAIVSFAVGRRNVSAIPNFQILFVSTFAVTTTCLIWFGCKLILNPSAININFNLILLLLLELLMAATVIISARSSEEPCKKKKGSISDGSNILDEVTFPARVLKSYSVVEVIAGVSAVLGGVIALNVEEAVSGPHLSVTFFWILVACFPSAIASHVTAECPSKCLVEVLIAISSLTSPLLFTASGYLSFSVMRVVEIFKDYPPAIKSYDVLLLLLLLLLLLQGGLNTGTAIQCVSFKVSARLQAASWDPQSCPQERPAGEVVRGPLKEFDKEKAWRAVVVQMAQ

[6] = target: endogenous human MLC1 (Homo sapiens (Human)., UniProt Q15049); assay: immunostaining of cells or tissue
Sequence of endogenous human MLC1 (Q15049 whole entry): as the sequence (Q15049 whole entry) above

[7] = target: Flag::hMLC1::GFP (Homo sapiens (Human)., UniProt Q15049); assay: immunostaining of cells or tissue
Sequence of Flag::hMLC1::GFP (Q15049 whole entry): as above

[8] = target: endogenous mouse MLC1 (Mus musculus (Mouse)., UniProt Q8VHK5); assay: co-IP
Sequence of endogenous mouse MLC1 (Q8VHK5 whole entry): as the sequence (Q8VHK5 whole entry) above

[9] = target: T1, MLC1-derived peptide (antigen peptide of the cryo-EM complex) (Mus musculus); assay: cryo-EM structure
T1 chain: YDRMPTLERGRQDA

Sequence of human MLC1 fused to C-terminal GFP (Q15049 whole entry, the tested form may be a part): as the sequence (Q15049 whole entry) above
Sequence of mouse MLC1 fused to C-terminal GFP (Q8VHK5 whole entry, the tested form may be a part): as the sequence (Q8VHK5 whole entry) above

binding result [1]: binds
binding result [2]: binds
binding result [3]: binds
binding result [4]: binds
binding result [5]: binds
binding result [6]: binds
binding result [7]: binds
binding result [8]: binds
B1: monoclonal antibody 37E5 (anti-MLC1), whole IgG (antibody, V domains shown)
VH: QIQLVQSGPDLKKPGETVKISCKASGYTFTNYGMSWVKQAPGKVLKWMGWINTYTGEPTYADDFKGRFAFSLETSANTAYLQINNLKNEDTATYFCAREGATSGFPYWGQGTLVTVSA
VL: DIVMSQSPSSLAVSAGEKVTMSCRSSQSLLNSRTRKNYLAWYQQKPGQSPKLLIYWASTRESGVPDRFTGSGSGTDFTLTISSVQAEDLAVYYCKQSYDLPYTFGGGTKLEIK

binding result [9]: binds
B2: 37E5 Fab fragment (Fab, V domains shown)
VH: B1 VH
VL: B1 VL
